Measured values: PMC3240604

Biological target: purified wild-type N1 (C-terminal His tag) (vaccinia virus) (UniProt P17361)
Test: SEC-MALS

## purified wild-type N1 (C-terminal His tag) (from UniProt P17361) (natural protein)
  stoichiometry N: 2
